# From article PMC7114247
# Target: rVP35 wt (Zaire ebolavirus) (UniProt Q05127)
# UniProt Q05127, sequence (Q05127 whole entry): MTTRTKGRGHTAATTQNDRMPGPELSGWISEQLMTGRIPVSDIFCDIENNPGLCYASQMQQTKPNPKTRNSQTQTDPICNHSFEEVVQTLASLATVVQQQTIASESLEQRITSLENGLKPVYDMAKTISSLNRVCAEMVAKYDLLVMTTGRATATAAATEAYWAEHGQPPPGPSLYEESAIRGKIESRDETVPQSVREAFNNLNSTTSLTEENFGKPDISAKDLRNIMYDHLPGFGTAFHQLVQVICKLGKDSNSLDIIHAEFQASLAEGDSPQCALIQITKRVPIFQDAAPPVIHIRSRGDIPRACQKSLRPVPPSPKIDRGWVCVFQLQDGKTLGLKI
row,Substance,Kd
1,IVT 500 bp dsRNA,2.8 nM
2,IVT 50 bp dsRNA,3.2 nM
3,IVT 150 bp dsRNA,2.4 nM
